Literature values as cited in patent US10373702B2, “Water-soluble trans-membrane proteins and methods for the preparation and use thereof” (Massachusetts Institute of Technology, priority 2014, dated 2019).

Target: SDF1a (Homo sapiens, UniProt P48061)
Conditions: native membrane-bound receptor with SDF1a

Sequence of SDF1a (P48061 22-89 limits assumed, species assumed): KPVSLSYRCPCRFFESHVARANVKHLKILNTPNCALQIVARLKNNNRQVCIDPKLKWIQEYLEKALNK
Sequence of SDF1a (P61073 whole entry partner, species assumed): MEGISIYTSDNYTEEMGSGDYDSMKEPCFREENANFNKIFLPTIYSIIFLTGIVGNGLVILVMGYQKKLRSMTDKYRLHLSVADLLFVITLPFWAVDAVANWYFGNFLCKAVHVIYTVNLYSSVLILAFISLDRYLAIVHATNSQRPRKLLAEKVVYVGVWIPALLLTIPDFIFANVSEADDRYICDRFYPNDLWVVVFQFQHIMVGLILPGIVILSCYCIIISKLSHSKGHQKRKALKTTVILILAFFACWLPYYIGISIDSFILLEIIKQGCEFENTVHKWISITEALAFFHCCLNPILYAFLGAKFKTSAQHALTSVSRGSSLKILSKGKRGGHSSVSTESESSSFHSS

B1: CXCR4: native CXC chemokine receptor type 4 isoform a, 356 amino acids (protein)
chain: MSIPLPLLQIYTSDNYTEEMGSGDYDSMKEPCFREENANFNKIFLPTIYSIIFLTGIVGNGLVILVMGYQKKLRSMTDKYRLHLSVADLLFVITLPFWAVDAVANWYFGNFLCKAVHVIYTVNLYSSVLILAFISLDRYLAIVHATNSQRPRKLLAEKVVYVGVWIPALLLTIPDFIFANVSEADDRYICDRFYPNDLWVVVFQFQHIMVGLILPGIVILSCYCIIISKLSHSKGHQKRKALKTTVILILAFFACWLPYYIGISIDSFILLEIIKQGCEFENTVHKWISITEALAFFHCCLNPILYAFLGAKFKTSAQHALTSVSRGSSLKILSKGKRGGHSSVSTESESSSFHSS
Q: Which Kd does the source give for B1 here?
A: The Kd was about 100 nM.
